From paper PMC7181604, “Arabidopsis FHY3 and FAR1 integrate light and strigolactone signaling to regulate branching”

Experiments:
GST-SPL9SBP = molecular target: T1, GST-SPL9SBP (Arabidopsis thaliana, UniProt Q700W2 71-148); assay: EMSA; Beyotime EMSA kit, manufacturer's protocol (binding buffer not stated); proteins stored in 5 mM Tris-Cl pH 8.0, 50 mM KCl; conditions: protein: recombinant; tags: GST (N-terminal, pGEX-4T-1); label: biotin; blunt
T1 sequence: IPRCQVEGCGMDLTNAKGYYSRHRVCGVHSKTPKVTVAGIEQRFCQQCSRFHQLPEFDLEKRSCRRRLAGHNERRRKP

GST-SPL15SBP = molecular target: T2, GST-SPL15SBP (Arabidopsis thaliana, UniProt Q9M2Q6 56-133); assay: as above; conditions: protein: recombinant; tags: GST (N-terminal, pGEX-4T-1); label: biotin; blunt
T2 sequence: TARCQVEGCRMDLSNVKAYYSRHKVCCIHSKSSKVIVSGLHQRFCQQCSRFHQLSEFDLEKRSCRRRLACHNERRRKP

His-FHY3-I = molecular target: T3, His-FHY3-I (Arabidopsis thaliana, UniProt Q9LIE5 1-251); assay: EMSA; FHY3-I alone; Beyotime EMSA kit, manufacturer's protocol (binding buffer not stated); proteins stored in 5 mM Tris-Cl pH 8.0, 50 mM KCl; conditions: protein: recombinant; tags: 6xHis (pET28a); label: biotin; blunt
T3 sequence: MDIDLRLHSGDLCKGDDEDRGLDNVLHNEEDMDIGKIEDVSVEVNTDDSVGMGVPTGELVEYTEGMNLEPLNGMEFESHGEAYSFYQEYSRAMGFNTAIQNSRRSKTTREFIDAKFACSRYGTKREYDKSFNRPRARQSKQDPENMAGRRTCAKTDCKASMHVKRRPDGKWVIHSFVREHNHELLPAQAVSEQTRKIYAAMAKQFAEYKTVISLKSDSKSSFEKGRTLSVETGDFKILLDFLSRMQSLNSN

B1: BRC1 promoter EMSA probe (PB01/PB02) (dsDNA)
DNA 1: GAAGAAGCCAGCGAGTCCAACCATTATAGTCATGTGGTCCTCCTGATAATTGCAGGCCTA
DNA 2: TAGGCCTGCAATTATCAGGAGGACCACATGACTATAATGGTTGGACTCGCTGGCTTCTTC
**Q.** Which results are given for B1?
**A.** binding result (GST-SPL9SBP): binds; binding result (GST-SPL15SBP): binds; binding result (His-FHY3-I): no binding
